The record followed here is the RNAGym collection of RNA variant scans (doi:10.7554/elife.80360).

B1: Hairpin Ribozyme (parent)
chain: GUCCUCUUUCACGUGCGCGUGAAAGAGAGAAGUGAACCAGAGAAACACACGUUGUGGUAUAUUACCUGGUA

This data set covers variants of B1. Briefly: self-cleavage, relative activity (ratio to wild type); higher = more cleavage; co-transcriptional.
Regarding GUCCUCUUUCACGUGCGCGUGAAAGAGAGACGUGAACCAGAGAAACACACGUUGUGCUAUAUUACCUGGUA, the self-cleavage was 0.189.

As to GUCCUCUUUCACGUGCGCGUGAAAGAGAGACGUGAACCAGAGAAACACACGUUGUGAUAUAUUACCUGGUA, the self-cleavage was 0.107. Take GUCCUCUUUCACGUGCGCGUGAAAGAGAGACGUGAACCAGAGAAACACACGUUGUGUUAUAUUACCUGGUA: the self-cleavage was 0.0476.

Turning to GUCCUCUUUCACGUGCGCGUGAAAGAGAGAGGUGAACCAGAGAAACACACGAUGUGGUAUAUUACCUGGUA, the self-cleavage was 0.764.

For GUCCUCUUUCACGUGCGCGUGAAAGAGAGAGGUGAACCAGAGAAACACACGGUGUGGUAUAUUACCUGGUA, the self-cleavage was found to be 0.4. Regarding GUCCUCUUUCACGUGCGCGUGAAAGAGAGAGGUGAACCAGAGAAACACACGCUGUGGUAUAUUACCUGGUA, the self-cleavage came to 0.508. In the case of GUCCUCUUUCACGUGCGCGUGAAAGAGAGAGGUGUACCAGAGAAACACACGUUGUGGUAUAUUACCUGGUA, the self-cleavage is 0.378. As for GUCCUCUUUCACGUGCGCGUGAAAGAGAGAGGUGGACCAGAGAAACACACGUUGUGGUAUAUUACCUGGUA, the self-cleavage came out at 0.662.

With GUCCUCUUUCACGUGCGCGUGAAAGAGAGACGUGAACCAGAGAAACACACGUUGUGGUAUAUUACCUGAUA, the self-cleavage turned out to be 0.0915.

In the case of GUCCUCUUUCACGUGCGCGUGAAAGAGAGAGGUGAACCAGAGAAACACACGUUGUGGUAUAUUACCUGGUU, the self-cleavage was 0.396. The value for GUCCUCUUUCACGUGCGCGUGAAAGAGAGAGGUGAACCAGAGAACCACACGUUGUGGUAUAUUACCUGGUA was 0.241; that for GUCCUCUUUCACGUGCGCGUGAAAGAGAGAGGUGAACCAGAGAAUCACACGUUGUGGUAUAUUACCUGGUA was 0.236.

As to GUCCUCUUUCACGUGCGCGUGAAAGAGAGACGUGAACCAGAGAAACACACGUUAUGGUAUAUUACCUGGUA, the self-cleavage was determined as 0.152. On to GUCCUCUUUCACGUGCGCGUGAAAGAGAGAGGUGAAACAGAGAAACACACGUUGUGGUAUAUUACCUGGUA, for which the self-cleavage came to 0.158. Turning to GUCCUCUUUCACGUGCGCGUGAAAGAGAGAGGUGAAGCAGAGAAACACACGUUGUGGUAUAUUACCUGGUA, the self-cleavage was determined as 0.162. The value for GUCCUCUUUCACGUGCGCGUGAAAGAGAGAGGUGAACCAGAGAAACACACGUUGUGGUAUAUUGCCUGGUA was 0.284. As for GUCCUCUUUCACGUGCGCGUGAAAGAGAGAGGUGAACCAGAGAAACACACGUUGUGGUAUAUUCCCUGGUA, the self-cleavage is 0.0777.

Turning to GUCCUCUUUCACGUGCGCGUGAAAGAGAGAGGUGAACCAGAGAAACACACUUUGUGGUAUAUUACCUGGUA, the self-cleavage turned out to be 0.599. As for GUCCUCUUUCACGUGCGCGUGAAAGAGAGAGGUGAACCAGAGAAACACACGUUCUGGUAUAUUACCUGGUA, the self-cleavage amounted to 0.276.

GUCCUCUUUCACGUGCGCGUGAAAGAGAGACGUGAACCAGAGAAACACACGUUGUGGUACAUUACCUGGUA: the self-cleavage was found to be 0.188.

Consider GUCCUCUUUCACGUGCGCGUGAAAGAGAGACGUGAACCAGAGAAACACACGUUGUGGUAUAUUUCCUGGUA, for which the self-cleavage is 0.11. For GUCCUCUUUCACGUGCGCGUGAAAGAGAGACGUGAACCAGAGAAAGACACGUUGUGGUAUAUUACCUGGUA, the self-cleavage is 0.0917. Turning to GUCCUCUUUCACGUGCGCGUGAAAGAGAGACGUGAACCAGAGAAAUACACGUUGUGGUAUAUUACCUGGUA, the self-cleavage turned out to be 0.187.

As for GUCCUCUUUCACGUGCGCGUGAAAGAGAGACGUGAACCAGAGAAAAACACGUUGUGGUAUAUUACCUGGUA, the self-cleavage stood at 0.0889.

Take GUCCUCUUUCACGUGCGCGUGAAAGAGAGACGUGAACCAGAGAAACACACGUUGUGGUAUACUACCUGGUA: the self-cleavage was 0.0677. With GUCCUCUUUCACGUGCGCGUGAAAGAGAGAGGUGAACCAGAGAUACACACGUUGUGGUAUAUUACCUGGUA, the self-cleavage is 0.205. The value for GUCCUCUUUCACGUGCGCGUGAAAGAGAGAGGUGAACCAGAGAGACACACGUUGUGGUAUAUUACCUGGUA was 0.208; that for GUCCUCUUUCACGUGCGCGUGAAAGAGAGAGGUGAACCCGAGAAACACACGUUGUGGUAUAUUACCUGGUA was 0.253; that for GUCCUCUUUCACGUGCGCGUGAAAGAGAGAGGUGAACCUGAGAAACACACGUUGUGGUAUAUUACCUGGUA was 0.105. For GUCCUCUUUCACGUGCGCGUGAAAGAGAGAGGUGAACCAGAGAAACACACGUUGUGGUAUAUUAUCUGGUA, the self-cleavage is 0.252. For the variant GUCCUCUUUCACGUGCGCGUGAAAGAGAGACGGGAACCAGAGAAACACACGUUGUGGUAUAUUACCUGGUA, the self-cleavage was determined as 0.0823. As for GUCCUCUUUCACGUGCGCGUGAAAGAGAGAGGUGAACCAGAGAAACACAUGUUGUGGUAUAUUACCUGGUA, the self-cleavage is 0.266. As for GUCCUCUUUCACGUGCGCGUGAAAGAGAGAGGUGAACCAGAGAAACACAGGUUGUGGUAUAUUACCUGGUA, the self-cleavage was 0.176. Turning to GUCCUCUUUCACGUGCGCGUGAAAGAGAGAGGUAAACCAGAGAAACACACGUUGUGGUAUAUUACCUGGUA, the self-cleavage was found to be 1.12. For GUCCUCUUUCACGUGCGCGUGAAAGAGAGACGUGAACCAGAGAAACACACGUUGUUGUAUAUUACCUGGUA, the self-cleavage worked out at 0.182. The value for GUCCUCUUUCACGUGCGCGUGAAAGAGAGACGUGAACCAGAGAAACACACGUUGUCGUAUAUUACCUGGUA was 0.115; that for GUCCUCUUUCACGUGCGCGUGAAAGAGAGAGGUGAACCAGAGAAACACUCGUUGUGGUAUAUUACCUGGUA was 0.11. GUCCUCUUUCACGUGCGCGUGAAAGAGAGACGUGAACCAGAGAAACACAGGUUGUGGUAUAUUACCUGGUA: the self-cleavage came to 0.0635.
